How the values were obtained:
p75^NTR [1] = molecular target: T1, p75^NTR (Mus musculus, UniProt Q9Z0W1); experiment: Proliferation and cytokine secretion of OT-II CD4+ or OT-I CD8+ T-cells co-cultured with murine PDCs; type: cell-based
T1 construct: endogenous in cells; host or cells: murine plasmacytoid dendritic cells differentiated in vitro from bone marrow with Flt3-L (p75NTR+/+ wildtype; p75NTR-/- as control)
T1 sequence (Q9Z0W1 32-427): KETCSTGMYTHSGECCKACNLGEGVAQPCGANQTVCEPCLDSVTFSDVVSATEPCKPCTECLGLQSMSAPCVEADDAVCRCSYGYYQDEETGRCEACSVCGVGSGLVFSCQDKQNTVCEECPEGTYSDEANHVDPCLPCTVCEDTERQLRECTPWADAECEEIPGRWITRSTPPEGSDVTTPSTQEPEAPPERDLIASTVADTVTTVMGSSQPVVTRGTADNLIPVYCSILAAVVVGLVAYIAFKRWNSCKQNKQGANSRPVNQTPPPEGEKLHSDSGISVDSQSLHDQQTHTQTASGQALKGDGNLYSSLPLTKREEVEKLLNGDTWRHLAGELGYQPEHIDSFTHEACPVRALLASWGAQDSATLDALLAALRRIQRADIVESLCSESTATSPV
Source text: Murine T-cells were isolated either from OT-II mouse strain expressing ovalbumin peptide specific T-cell receptors on CD4+ T-cells or from OT-I mouse strain expressing ovalbumin peptide specific T-cell receptors on CD8+CTLs using the CD8+ T-cell isolation kit (Miltenyi Biotec).

p75^NTR [2] = molecular target: T2, p75^NTR (Homo sapiens, UniProt P08138); experiment: IFNα secretion by ODN 2216 stimulated human PDC (ELISA); type: cell-based; set-up: nerve growth factor receptor p75^NTR, which is expressed by human and murine plasmacytoid dendritic cells (PDC); endogenous in cells; host or cells: primary human plasmacytoid dendritic cells (BDCA-4+ selection) from buffy coats or from peripheral blood of allergic donors; settings: ODN 2216 plus NGF 200 ng/ml vs ODN 2216 without NGF; 14 hours; p=0.0031
T2 sequence (P08138 29-427): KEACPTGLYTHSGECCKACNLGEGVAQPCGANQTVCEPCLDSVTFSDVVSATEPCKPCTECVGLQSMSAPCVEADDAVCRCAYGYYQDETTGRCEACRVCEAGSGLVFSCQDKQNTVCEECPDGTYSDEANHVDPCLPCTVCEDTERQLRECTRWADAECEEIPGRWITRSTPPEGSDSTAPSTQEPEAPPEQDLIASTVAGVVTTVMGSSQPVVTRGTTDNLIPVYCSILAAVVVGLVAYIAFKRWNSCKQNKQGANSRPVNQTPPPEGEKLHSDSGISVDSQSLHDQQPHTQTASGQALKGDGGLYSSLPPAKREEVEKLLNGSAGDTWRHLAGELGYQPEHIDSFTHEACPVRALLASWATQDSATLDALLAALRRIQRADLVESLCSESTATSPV
Procedure: Blood samples used for cell purification were obtained from two different sources: Fresh buffy coat samples, not older than 8 hours, served as the source of PDC used in oligodeoxynucleotides (ODN) and anti FcεRIα stimulation experiments. […]
Alike CD4^+ T helper cells isolation from peripheral blood mononuclear cells, total cell numbers were determined prior to purification of PDC. […] Magnetic cell separation procedure as described for first LS column was repeated for second MS column except that washing of the MS column was carried out with 500 μl PBS E/B. Purified PDC were counted and purity was assessed by flow cytometric analysis after staining the cells with monoclonal mouse anti human BDCA2-PE (Miltenyi Biotech) and monoclonal mouse anti human CD271-APC (Miltenyi Biotech). […]

[3] = co-culture with PDCs, NGF present
[4] = co-culture with p75^NTR+/+ PDCs, NGF added, compared to p75^NTR−/− PDCs

“NGF: Nerve growth factor, best characterized neurotrophin; natural p75^NTR agonist (R&D Systems)” was tested, and the “cytokine secretion of CD8+ T-cells (CTLs) from OT-I strain” value (p75^NTR [1]; [3]) was “secreted less cytokines”, the “proliferation of CD8+ T-cells (CTLs) from OT-I strain” value (p75^NTR [1]; [3]) was “reduced proliferation” and the “cytokine secretion of CD4+ T-cells from OT-II strain” value (p75^NTR [1]; [4]) was “increased”. The “proliferation of CD4+ T-cells from OT-II strain” value (p75^NTR [1]; [4]) was “increased” and the IFNα secretion (p75^NTR [2]) was “significant reduction”.
